Consider 6 variants from IntAct's records for PubMed 20562859.

B1: Gamma-aminobutyric acid receptor-associated protein (Homo sapiens), O95166 (parent)
chain: MKFVYKEEHPFEKRRSEGEKIRKKYPDRVPVIVEKAPKARIGDLDKKKYLVPSDLTVGQFYFLIRKRIHLRAEDALFFFVNNVIPPTSATMGQLYQEHHEEDFFLYIAYSDESVYGL
partner: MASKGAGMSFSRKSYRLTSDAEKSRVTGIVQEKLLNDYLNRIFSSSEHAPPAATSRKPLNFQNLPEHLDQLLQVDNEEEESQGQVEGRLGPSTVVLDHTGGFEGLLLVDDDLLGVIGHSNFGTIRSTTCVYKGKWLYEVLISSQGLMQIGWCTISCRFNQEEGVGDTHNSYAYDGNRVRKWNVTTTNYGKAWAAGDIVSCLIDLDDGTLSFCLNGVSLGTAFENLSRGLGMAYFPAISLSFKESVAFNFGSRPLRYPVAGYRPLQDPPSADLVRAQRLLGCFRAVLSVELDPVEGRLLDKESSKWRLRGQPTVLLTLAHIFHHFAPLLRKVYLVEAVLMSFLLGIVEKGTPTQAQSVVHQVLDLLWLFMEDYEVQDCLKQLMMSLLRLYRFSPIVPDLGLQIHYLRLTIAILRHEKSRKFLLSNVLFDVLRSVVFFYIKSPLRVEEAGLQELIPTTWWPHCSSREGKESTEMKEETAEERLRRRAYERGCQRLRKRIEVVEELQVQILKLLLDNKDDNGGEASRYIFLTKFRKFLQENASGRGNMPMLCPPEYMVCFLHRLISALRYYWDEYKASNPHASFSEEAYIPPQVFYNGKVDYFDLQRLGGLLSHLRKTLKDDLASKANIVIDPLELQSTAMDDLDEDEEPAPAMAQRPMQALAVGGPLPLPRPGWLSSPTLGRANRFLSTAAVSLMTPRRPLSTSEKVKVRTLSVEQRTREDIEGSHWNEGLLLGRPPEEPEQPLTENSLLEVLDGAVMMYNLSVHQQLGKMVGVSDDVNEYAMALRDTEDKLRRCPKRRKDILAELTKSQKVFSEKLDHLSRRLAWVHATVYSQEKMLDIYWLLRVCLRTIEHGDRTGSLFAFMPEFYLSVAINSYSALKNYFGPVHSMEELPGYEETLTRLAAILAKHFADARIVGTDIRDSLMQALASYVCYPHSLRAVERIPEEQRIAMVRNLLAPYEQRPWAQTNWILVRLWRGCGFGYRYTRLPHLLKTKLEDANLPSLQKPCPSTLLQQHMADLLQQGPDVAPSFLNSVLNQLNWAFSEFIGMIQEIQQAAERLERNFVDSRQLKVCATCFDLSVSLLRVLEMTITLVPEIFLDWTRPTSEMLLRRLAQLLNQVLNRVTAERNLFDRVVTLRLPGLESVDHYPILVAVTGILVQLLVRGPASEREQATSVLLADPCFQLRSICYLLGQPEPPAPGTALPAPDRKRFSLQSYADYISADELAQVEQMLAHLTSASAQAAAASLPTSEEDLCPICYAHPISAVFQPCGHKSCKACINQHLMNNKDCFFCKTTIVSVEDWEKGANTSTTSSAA
B2: Gamma-aminobutyric acid receptor-associated protein (Homo sapiens), O95166 (parent)
chain: B1 chain
partner: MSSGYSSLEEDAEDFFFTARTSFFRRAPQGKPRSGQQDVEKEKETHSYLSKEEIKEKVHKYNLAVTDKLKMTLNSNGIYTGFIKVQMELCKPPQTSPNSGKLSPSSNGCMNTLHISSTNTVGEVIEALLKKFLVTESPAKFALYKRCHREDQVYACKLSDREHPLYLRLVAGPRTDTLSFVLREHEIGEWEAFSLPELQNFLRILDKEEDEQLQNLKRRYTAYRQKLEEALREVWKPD
B3: Gamma-aminobutyric acid receptor-associated protein (Homo sapiens), O95166 (parent)
chain: B1 chain
partner: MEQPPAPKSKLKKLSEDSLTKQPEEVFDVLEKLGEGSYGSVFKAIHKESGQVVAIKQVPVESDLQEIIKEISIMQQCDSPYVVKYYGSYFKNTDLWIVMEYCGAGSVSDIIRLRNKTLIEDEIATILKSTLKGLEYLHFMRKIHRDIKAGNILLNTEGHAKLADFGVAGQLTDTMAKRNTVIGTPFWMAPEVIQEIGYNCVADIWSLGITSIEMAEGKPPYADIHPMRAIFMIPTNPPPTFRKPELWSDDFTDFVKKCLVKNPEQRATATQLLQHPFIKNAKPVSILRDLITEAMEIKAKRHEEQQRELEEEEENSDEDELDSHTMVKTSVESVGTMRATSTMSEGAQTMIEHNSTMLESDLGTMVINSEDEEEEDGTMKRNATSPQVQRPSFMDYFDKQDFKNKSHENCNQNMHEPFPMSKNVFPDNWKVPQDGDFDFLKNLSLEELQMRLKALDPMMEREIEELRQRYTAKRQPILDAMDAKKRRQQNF
B4: Gamma-aminobutyric acid receptor-associated protein (Homo sapiens), O95166 (parent)
chain: B1 chain
partner: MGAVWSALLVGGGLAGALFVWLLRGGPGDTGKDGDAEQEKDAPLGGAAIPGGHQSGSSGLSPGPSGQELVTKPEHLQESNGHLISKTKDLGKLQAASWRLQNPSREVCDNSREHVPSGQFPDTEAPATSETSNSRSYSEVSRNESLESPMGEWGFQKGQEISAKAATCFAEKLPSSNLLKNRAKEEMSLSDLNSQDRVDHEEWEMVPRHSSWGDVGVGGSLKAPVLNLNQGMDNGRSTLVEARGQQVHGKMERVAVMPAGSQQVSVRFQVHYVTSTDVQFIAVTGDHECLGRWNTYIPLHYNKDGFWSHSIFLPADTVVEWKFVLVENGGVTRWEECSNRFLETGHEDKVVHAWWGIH
B5: Gamma-aminobutyric acid receptor-associated protein (Homo sapiens), O95166 (parent)
chain: B1 chain
partner: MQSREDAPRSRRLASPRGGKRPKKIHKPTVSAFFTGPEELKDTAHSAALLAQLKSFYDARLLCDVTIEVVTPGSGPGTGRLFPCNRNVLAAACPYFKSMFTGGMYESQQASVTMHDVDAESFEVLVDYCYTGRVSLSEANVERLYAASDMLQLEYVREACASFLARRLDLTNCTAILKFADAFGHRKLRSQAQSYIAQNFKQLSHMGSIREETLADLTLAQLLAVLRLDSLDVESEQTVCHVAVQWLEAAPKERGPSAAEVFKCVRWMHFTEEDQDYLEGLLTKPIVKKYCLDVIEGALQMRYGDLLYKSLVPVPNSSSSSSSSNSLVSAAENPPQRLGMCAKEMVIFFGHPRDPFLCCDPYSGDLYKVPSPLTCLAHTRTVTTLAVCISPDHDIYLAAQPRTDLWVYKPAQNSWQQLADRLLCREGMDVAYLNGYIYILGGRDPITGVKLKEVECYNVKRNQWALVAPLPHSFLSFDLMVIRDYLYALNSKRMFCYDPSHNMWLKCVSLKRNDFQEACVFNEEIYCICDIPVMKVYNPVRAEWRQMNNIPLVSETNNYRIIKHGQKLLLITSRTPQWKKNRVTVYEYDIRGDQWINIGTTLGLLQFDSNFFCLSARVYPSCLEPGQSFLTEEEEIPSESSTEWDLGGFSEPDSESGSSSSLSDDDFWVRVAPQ
B6: Gamma-aminobutyric acid receptor-associated protein (Homo sapiens), O95166 (parent)
chain: B1 chain
partner: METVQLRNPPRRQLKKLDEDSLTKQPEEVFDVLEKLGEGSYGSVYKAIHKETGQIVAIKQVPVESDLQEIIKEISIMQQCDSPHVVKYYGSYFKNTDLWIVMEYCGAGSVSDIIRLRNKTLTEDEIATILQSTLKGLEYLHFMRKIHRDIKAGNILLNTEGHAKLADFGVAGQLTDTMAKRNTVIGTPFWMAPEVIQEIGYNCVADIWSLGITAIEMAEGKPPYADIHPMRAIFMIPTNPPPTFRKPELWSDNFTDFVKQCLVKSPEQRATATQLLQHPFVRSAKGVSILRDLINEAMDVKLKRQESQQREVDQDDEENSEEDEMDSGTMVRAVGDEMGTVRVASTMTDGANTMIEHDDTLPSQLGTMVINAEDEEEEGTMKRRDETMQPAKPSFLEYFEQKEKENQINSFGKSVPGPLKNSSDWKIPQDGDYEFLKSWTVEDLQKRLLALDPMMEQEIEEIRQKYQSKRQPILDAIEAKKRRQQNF

The variants in one test derive from B1. As to conditions: with rn123_human RNF123, Q5XPI4.
For Y49A;L50A, the “effect of a mutation on the interaction” value is “decreasing interaction”.

The variants in a further test derive from B2. The following applies: with rasf3_human RASSF3, Q86WH2.
As to Y49A;L50A, the “effect of a mutation on the interaction” value is reported as “decreasing interaction”.

Variants of B3 are the subject of a further test. As to conditions: with stk3_human STK3, Q13188.
In the case of Y49A;L50A, the “effect of a mutation on the interaction” value is given as “decreasing interaction”.

The variants in another test derive from B4. As to conditions: with stbd1_human STBD1, O95210.
For Y49A;L50A, the “effect of a mutation on the interaction” value is “decreasing interaction”.

Variants of B5 are the subject of the next test. The following applies: with kbtb6_human KBTBD6, Q86V97.
Regarding Y49A;L50A, the “effect of a mutation on the interaction” value is listed as “decreasing interaction”.

In the next test the parent is B6. The following applies: with stk4_human STK4, Q13043.
As for R71A, the “effect of a mutation on the interaction” value is reported as “increasing interaction”.
